The results in this text go back to patent publication EP4707292A2 (The University of North Carolina at Chapel Hill, dated 2026).

Sequences and labels used below:
B1: Isoform 2 of Haptoglobin-related protein (other)
chain: MHVCVCVCVCVYMPVCVDACMCCEAGRPAFRSFLFSLCSDLGAVISLLLWGRQLFALYSGNDVTDISDDRFPKPPEIANGYVEHLFRYQCKNYYRLRTEGDGVYTLNDKKQWINKAVGDKLPECEAVCGKPKNPANPVQRILGGHLDAKGSFPWQAKMVSHHNLTTGATLINEQWLLTTAKNLFLNHSENATAKDIAPTLTLYVGKKQLVEIEKVVLHPNYHQVDIGLIKLKQKVLVNERVMPICLPSKNYAEVGRVGYVSGWGQSDNFKLTDHLKYVMLPVADQYDCITHYEGSTCPKWKAPKSPVGVQPILNEHTFCVGMSKYQEDTCYGDAGSAFAVHDLEEDTWYAAGILSFDKSCAVAEYGVYVKVTSIQHWVQKTIAEN
notes: also called HPR
B2: Isoform 2 of Ig mu chain C region (other)
chain: GSASAPTLFPLVSCENSPSDTSSVAVGCLAQDFLPDSITFSWKYKNNSDISSTRGFPSVLRGGKYAATSQVLLPSKDVMQGTDEHVVCKVQHPNGNKEKNVPLPVIAELPPKVSVFVPPRDGFFGNPRKSKLICQATGFSPRQIQVSWLREGKQVGSGVTTDQVQAEAKESGPTTYKVTSTLTIKESDWLGQSMFTCRVDHRGLTFQQNASSMCVPDQDTAIRVFAIPPSFASIFLTKSTKLTCLVTDLTTYDSVTISWTRQNGEAVKTHTNISESHPNATFSAVGEASICEDDWNSGERFTCTVTHTDLPSPLKQTISRPKGVALHRPDVYLLPPAREQLNLRESATITCLVTGFSPADVFVQWMQRGQPLSPEKYVTSAPMPEPQAPGRYFAHSILTVSEEEWNTGETYTCVVAHEALPNRVTERTVDKSTEGEVSADEEGFENLWATASTFIVLFLLSLFYSTTVTLFKVK
notes: also called IGHM
B3: Plasminogen (other)
chain: EPLDDYVNTQGASLFSVTKKQLGAGSIEECAAKCEEDEEFTCRAFQYHSKEQQCVIMAENRKSSIIIRMRDVVLFEKKVYLSECKTGNGKNYRGTMSKTKNGITCQKWSSTSPHRPRFSPATHPSEGLEENYCRNPDNDPQGPWCYTTDPEKRYDYCDILECEEECMHCSGENYDGKISKTMSGLECQAWDSQSPHAHGYIPSKFPNKNLKKNYCRNPDRELRPWCFTTDPNKRWELCDIPRCTTPPPSSGPTYQCLKGTGENYRGNVAVTVSGHTCQHWSAQTPHTHNRTPENFPCKNLDENYCRNPDGKRAPWCHTTNSQVRWEYCKIPSCDSSPVSTEQLAPTAPPELTPVVQDCYHGDGQSYRGTSSTTTTGKKCQSWSSMTPHRHQKTPENYPNAGLTMNYCRNPDADKGPWCFTTDPSVRWEYCNLKKCSGTEASVVAPPPVVLLPDVETPSEEDCMFGNGKGYRGKRATTVTGTPCQDWAAQEPHRHSIFTPETNPRAGLEKNYCRNPDGDVGGPWCYTTNPRKLYDYCDVPQCAAPSFDCGKPQVEPKKCPGRVVGGCVAHPHSWPWQVSLRTRFGMHFCGGTLISPEWVLTAAHCLEKSPRPSSYKVILGAHQEVNLEPHVQEIEVSRLFLEPTRKDIALLKLSSPAVITDKVIPACLPSPNYVVADRTECFITGWGETQGTFGAGLLKEAQLPVIENKVCNRYEFLNGRVQSTELCAGHLAGGTDSCQGDSGGPLVCFEKDKYILQGVTSWGLGCARPNKPGVYVRVSRFVTWIEGVMRNN
notes: also called PLG; PMG
B4: Fibrinogen gamma chain (other)
chain: YVATRDNCCILDERFGSYCPTTCGIADFLSTYQTKVDKDLQSLEDILHQVENKTSEVKQLIKAIQLTYNPDESSKPNMIDAATLKSRKMLEEIMKYEASILTHDSSIRYLQEIYNSNNQKIVNLKEKVAQLEAQCQEPCKDTVQIHDITGKDCQDIANKGAKQSGLYFIKPLKANQQFLVYCEIDGSGNGWTVFQKRLDGSVDFKKNWIQYKEGFGHLSPTGTTEFWLGNEKIHLISTQSAIPYALRVELEDWNGRTSTADYAMFKVGPEADKYRLTYAYFAGGDAGDAFDGFDFGDDPSDKFFTSHNGMQFSTWDNDNDKFEGNCAEQDGSGWWMNKCHAGHLNGVYYQGGTYSKASTPNGYDNGIIWATWKTRWYSMKKTTMKIIPFNRLTIGEGQQHHLGGAKQVRPEHPAETEYDSLYPEDDL
notes: also called FGG
B5: Fibrinogen alpha chain (other)
chain: GPRVVERHQSACKDSDWPFCSDEDWNYKCPSGCRMKGLIDEVNQDFTNRINKLKNSLFEYQKNNKDSHSLTTNIMEILRGDFSSANNRDNTYNRVSEDLRSRIEVLKRKVIEKVQHIQLLQKNVRAQLVDMKRLEVDIDIKIRSCRGSCSRALAREVDLKDYEDQQKQLEQVIAKDLLPSRDRQHLPLIKMKPVPDLVPGNFKSQLQKVPPEWKALTDMPQMRMELERPGGNEITRGGSTSYGTGSETESPRNPSSAGSWNSGSSGPGSTGNRNPGSSGTGGTATWKPGSSGPGSTGSWNSGSSGTGSTGNQNPGSPRPGSTGTWNPGSSERGSAGHWTSESSVSGSTGQWHSESGSFRPDSPGSGNARPNNPDWGTFEEVSGNVSPGTRREYHTEKLVTSKGDKELRTGKEKVTSGSTTTTRRSCSKTVTKTVIGPDGHKEVTKEVVTSEDGSDCPEAMDLGTLSGIGTLDGFRHRHPDEAAFFDTASTGKTFPGFFSPMLGEFVSETESRGSESGIFTNTKESSSHHPGIAEFPSRGKSSSYSKQFTSSTSYNRGDSTFESKSYKMADEAGSEADHEGTHSTKRGHAKSRPVRDCDDVLQTHPSGTQSGIFNIKLPGSSKIFSVYCDQETSLGGWLLIQQRMDGSLNFNRTWQDYKRGFGSLNDEGEGEFWLGNDYLHLLTQRGSVLRVELEDWAGNEAYAEYHFRVGSEAEGYALQVSSYEGTAGDALIEGSVEEGAEYTSHNNMQFSTFDRDADQWEENCAEVYGGGWWYNNCQAANLNGIYYPGGSYDPRNNSPYEIENGVVWVSFRGADYSLRAVRMKIRPLVTQ
notes: from human serum, identified by MS; also called FGA
B6: Fibrinogen beta chain (other)
chain: GHRPLDKKREEAPSLRPAPPPISGGGYRARPAKAAATQKKVERKAPDAGGCLHADPDLGVLCPTGCQLQEALLQQERPIRNSVDELNNNVEAVSQTSSSSFQYMYLLKDLWQKRQKQVKDNENVVNEYSSELEKHQLYIDETVNSNIPTNLRVLRSILENLRSKIQKLESDVSAQMEYCRTPCTVSCNIPVVSGKECEEIIRKGGETSEMYLIQPDSSVKPYRVYCDMNTENGGWTVIQNRQDGSVDFGRKWDPYKQGFGNVATNTDGKNYCGLPGEYWLGNDKISQLTRMGPTELLIEMEDWKGDKVKAHYGGFTVQNEANKYQISVNKYRGTAGNALMDGASQLMGENRTMTIHNGMFFSTYDRDNDGWLTSDPRKQCSKEDGGGWWYNRCHAANPNGRYYWGGQYTWDMAKHGTDDGVVWMNWKGSWYSMRKMSMKIRPFFPQQ
notes: also called FGB
B7: Ig gamma-2 chain C region (other)
chain: ASTKGPSVFPLAPCSRSTSESTAALGCLVKDYFPEPVTVSWNSGALTSGVHTFPAVLQSSGLYSLSSVVTVPSSNFGTQTYTCNVDHKPSNTKVDKTVERKCCVECPPCPAPPVAGPSVFLFPPKPKDTLMISRTPEVTCVVVDVSHEDPEVQFNWYVDGVEVHNAKTKPREEQFNSTFRVVSVLTVVHQDWLNGKEYKCKVSNKGLPAPIEKTISKTKGQPREPQVYTLPPSREEMTKNQVSLTCLVKGFYPSDISVEWESNGQPENNYKTTPPMLDSDGSFFLYSKLTVDKSRWQQGNVFSCSVMHEALHNHYTQKSLSLSPGK
notes: also called IGHG2

The target of one assay is T1, Adeno-associated virus 8 (AAV8) virion (adeno-associated virus 8).
T1 construct: Intact virion with packaged vector genome; capsid of 60 subunits (VP1, VP2, VP3, overlapping products of one cap gene); also called AAV8/luc; AAV8 capsid
Put plainly: co-IP/LC-MS/MS, AAV8 + human serum vs PBS control.
As to B1, the fold change was found to be 2.82 fold.

Consider B2, for which the fold change was found to be 3 fold.

As for B3, the fold change came to 1.48 fold.

B4: the fold change turned out to be 1.6 fold.

On to B5, for which the fold change amounted to 1.75 fold.

For B6, the fold change is 1.43 fold.

With B7, the fold change stood at 5.06 fold.

In another assay the target is T2, Adeno-associated virus 9 (AAV9) virion (adeno-associated virus 9).
T2 construct: Intact virion; capsid of VP1, VP2, VP3; also called AAV9/luc; AAV9 capsid
Put plainly: co-IP with ADK9/LC-MS/MS, AAV9 + human serum vs control.
B1: the “fold change” value came out at 2.82 fold.

B2: the “fold change” value worked out at 3 fold.

On to B3, for which the “fold change” value is 1.48 fold.

B4: the “fold change” value came out at 1.6 fold.

For the molecule B5, the “fold change” value came to 1.75 fold.

For the molecule B6, the “fold change” value was 1.43 fold.

Consider B7, for which the “fold change” value came to 5.06 fold.

A further assay addresses T2, Adeno-associated virus 9 (AAV9) virion. The assay is described as above. This is another data set of the same source.
Consider B3, for which the Fold increase worked out at 3.23 fold.

In the case of B4, the Fold increase was determined as 4.85 fold.

In the case of B5, the Fold increase stood at 4.95 fold.

B6: the Fold increase was 4.97 fold.
